One molecule from publication PMC4202109 (The FASEB Journal, 2014) can be followed below.

For this assay, the target named is Fluorescently labeled ATS (intracellular segment) of PfEMP1 variant PF08_0141, full-length segment (P. falciparum, 5-FAM label). The assay is described as follows: fluorescence polarisation.

B1: PFI1780w PHIST domain (as used in fluorescence polarization) (domain or fragment)
chain: SLSDEINKCDMKKYTAEEINEMINSSNEFINRNDMNIIFSYVHESEREKFKKVEENIFKFIQSIVETYKIPDEYKMRKFKFAHFEMQGYALKQEKFLLEYAFLSLNGKLCERKKFKEVLEYVKREWIEFRKSMFDVWKEKLASEFREHGEMLNQKRKLKQHEL
As to B1, the “fold lower affinity than PFE1605w” value is around 30 fold.
